Patent publication US20170275357A1 (Bristol-Myers Squibb, published 2017)
Where two headings read alike, the source gives them in different places.

T1: human IL-17F homodimer (human, UniProt Q96PD4 31-163)
T1 sequence: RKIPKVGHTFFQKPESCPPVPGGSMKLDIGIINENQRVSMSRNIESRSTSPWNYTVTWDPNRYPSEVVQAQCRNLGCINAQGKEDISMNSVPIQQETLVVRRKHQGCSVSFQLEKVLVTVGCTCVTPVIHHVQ

B1: humanized anti-human IL-17A/F antibody 339-134 mAb IgG1.1 (antibody, V domains shown)
VH: QVQLVQSGAEVKKPGASVKVSCKASGYTFNEYTMHWVKQAPGQRLEWMGGINPNSGGVSYNQNFKGKATLTVDTSASTAYMELSSLRSEDTAVYYCARGGDGYYTNYFDIDYWGQGTTVTVSS
VL: DIQMTQSPSSLSASVGDRVTITCSASSSVNYMHWYQQKPGKVPKLLIYDTSKLASGVPSRFSGSGSGTDFTLTISSLQPEDVATYYCQQWNSHPLTFGQGTKLEIKR
notes: IgG1.1/kappa; also called MVC978/MVC717; humanized parent
B2: Fab derived from the IL-17 arms of biAb3 (Lead Fab A3185F) (Fab, V domains shown)
VH: B1 VH
VL: not shown
notes: Expressed periplasmically in E. coli, purified by IMAC (tag not described); also called humanized lead Fab; biAb Fab
B3: hIL-23R-Fc (Fc fusion, human, UniProt Q5VWK5 24-353, looked up)
chain: GITNINCSGHIWVEPATIFKMGMNISIYCQAAIKNCQPRKLHFYKNGIKERFQITRINKTTARLWYKNFLEPHASMYCTAECPKHFQETLICGKDISSGYPPDIPDEVTCVIYEYSGNMTCTWNAGKLTYIDTKYVVHVKSLETEEEQQYLTSSYINISTDSLQGGKKYLVWVQAANALGMEESKQLQIHLDDIVIPSAAVISRAETINATVPKTIIYWDSQTTIEKVSCEMRYKATTNQTWNVKEFDTNFTYVQQSEFYLEPNIKYVFQVRCQETGKRYWQPWSSLFFHKTPETVPQVTSKAFQHDTWNSGLTVASISTGHLTSDNRGD
notes: Bought from R&D Systems; also called human IL-23 receptor; p19 specific IL-23 receptor; not shown: Fc part of the commercial fusion (R&D Systems) not described
B4: wild-type IL-23 (His-tagged p19 / non-tagged p40) (ligand, human)
chain 1: RAVPGGSSPAWTQCQQLSQKLCTLAWSAHPLVGHMDLREEGDEETTNDVPHIQCGDGCDPQGLRDNSQFCLQRIHQGLIFYEKLLGSDIFTGEPSLLPDSPVGQLHASLLGLSQLLQPEGHHWETQQIPSLSPSQPWQRLLLRFKILRSLQAFVAVAARVFAHGAATLSP
chain 2: IWELKKDVYVVELDWYPDAPGEMVVLTCDTPEEDGITWTLDQSSEVLGSGKTLTIQVKEFGDAGQYTCHKGGEVLSHSLLLLHKKEDGIWSTDILKDQKEPKNKTFLRCEAKNYSGRFTCWWLTTISTDLTFSVKSSRGSSDPQGVTCGAATLSAERVRGDNKEYEYSVECQEDSACPAAEESLPIEVMVDAVHKLKYENYTSSFFIRDIIKPDPPKNLQLKPLKNSRQVEVSWEYPDTWSTPHSYFSLTFCVQVQGKSKREKKDRVFTDKTSATVICRKNASISVRAQDRYYSSSWSEWASVPCS
B5: C/DVCV1 IgG1.1 (bispecific antibody)
heavy: QIQLVQSGPELKKPGETVEISCKASGYTFTDYLIFWVKQAPGKGLNWMGWINTETVEPTYADDFKGRFAFSLETSASTAHLLINNLKKEDTSTYFCARVPHLGPYYYAMDYWGQGTSVTVSSASTKGPSVFPLAPSSKSTSGGTAALGCLVKDYFPEPVTVSWNSGALTSGVHTFPAVLQSSGLYSLSSVVTVPSSSLGTQTYICNVNHKPSNTKVDKKVEPKSCGGGGSGGGGSQVTLKESGPGILQPSQTLSLTCSFSGFSLSTSGMGVGWIRQPSGKGLEWLANIWWDDDKRYNPALKSRLTISKDTSSNQVFLKIASVDTADTATYYCARIDYDYDRGAYHVMDYWGQGTSVTVSSEPKSSDKTHTCPPCPAPEAEGAPSVFLFPPKPKDTLMISRTPEVTCVVVDVSHEDPEVKFNWYVDGVEVHNAKTKPREEQYNSTYRVVSVLTVLHQDWLNGKEYKCKVSNKALPSSIEKTISKAKGQPREPQVYTLPPSRDELTKNQVSLTCLVKGFYPSDIAVEWESNGQPENNYKTTPPVLDSDGSFFLYSKLTVDKSRWQQGNVFSCSVMHEALHNHYTQKSLSLSPGK
light: DIVLKQSPASLGVALGQRATISCRASKSVSTSDFSYMHWYQQKPGQPPELLIYLASNLESGVPARFSGSGSGTDFTLNIHPVEEEDAATYYCQHSREFPPTFGAGTKLELKRTVAAPSVFIFPPSDEQLKSGTASVVCLLNNFYPREAKVQWKVDNALQSGNSQESVTEQDSKDSTYSLSSTLTLSKADYEKHKVYACEVTHQGLSSPVTKSFNRGECGGGGSGGGGSDIQMTQSPASLSVSVGETVTITCRTSENIFSNLAWYQQKQGKSPQLLVYDATNLADGVPSRFSGSGSGTQYSLKINSLQSEDFGTYYCQHFWYTPWTFGGGTKLEIK

Tests used:
human IL-17F homodimer [1] = biological target: T1, human IL-17F homodimer; assay: cell-based or functional assay
[2] = biological target: T2, human IL-17A/F heterodimer (human, UniProt Q16552 24-155; Q96PD4 31-163); assay: cell-based or functional assay
human IL-17A homodimer [3] = biological target: T3, human IL-17A homodimer (human, UniProt Q16552 24-155); assay: cell-based or functional assay
[4] = biological target: T2, human IL-17A/F heterodimer; assay: SPR Biacore T100, captured antibody, bivalent analyte model
[5] = biological target: T2, human IL-17A/F heterodimer; assay: as above; remark: listed apart in the source
human IL-17F homodimer [6] = biological target: T1, human IL-17F homodimer; assay: cell-based or functional assay; remark: listed apart in the source
[7] = biological target: T2, human IL-17A/F heterodimer; assay: cell-based or functional assay; remark: listed apart in the source
human IL-17A homodimer [8] = biological target: T3, human IL-17A homodimer; assay: cell-based or functional assay; remark: listed apart in the source
human IL-17F homodimer [9] = biological target: T1, human IL-17F homodimer; assay: cell-based or functional assay; remark: listed apart in the source
[10] = biological target: T2, human IL-17A/F heterodimer; assay: cell-based or functional assay; remark: listed apart in the source
human IL-17A homodimer [11] = biological target: T3, human IL-17A homodimer; assay: cell-based or functional assay; remark: listed apart in the source
human IL-17F homodimer [12] = biological target: T1, human IL-17F homodimer; assay: SPR Biacore T100, captured antibody, bivalent analyte model
human IL-17F homodimer [13] = biological target: T1, human IL-17F homodimer; assay: cell-based or functional assay; remark: listed apart in the source
[14] = biological target: T2, human IL-17A/F heterodimer; assay: cell-based or functional assay; remark: listed apart in the source
human IL-17A homodimer [15] = biological target: T3, human IL-17A homodimer; assay: cell-based or functional assay; remark: listed apart in the source
human IL-17A homodimer [16] = biological target: T3, human IL-17A homodimer; assay: SPR Biacore T100, captured antibody, bivalent analyte model
human IL-17F homodimer [17] = biological target: T1, human IL-17F homodimer; assay: cell-based or functional assay; remark: listed apart in the source
[18] = biological target: T2, human IL-17A/F heterodimer; assay: cell-based or functional assay; remark: listed apart in the source
human IL-17A homodimer [19] = biological target: T3, human IL-17A homodimer; assay: cell-based or functional assay; remark: listed apart in the source
human IL-17A homodimer [20] = biological target: T3, human IL-17A homodimer; assay: SPR Biacore T100, captured antibody, bivalent analyte model; remark: listed apart in the source
human IL-17F homodimer [21] = biological target: T1, human IL-17F homodimer; assay: as above; remark: listed apart in the source
human IL-17F homodimer [22] = biological target: T1, human IL-17F homodimer; assay: cell-based or functional assay; remark: listed apart in the source
[23] = biological target: T2, human IL-17A/F heterodimer; assay: cell-based or functional assay; remark: listed apart in the source
human IL-17A homodimer [24] = biological target: T3, human IL-17A homodimer; assay: cell-based or functional assay; remark: listed apart in the source
human IL-17F homodimer [25] = biological target: T1, human IL-17F homodimer; assay: X-ray co-crystal structure
[26] = biological target: B4; assay: SPR (Biacore T100): hIL-23R-Fc captured on protein A, IL-23 (purified wild-type, and wild-type expression supernatant diluted 1:5) injected 3 min; response 10 s before the end of the injection, reference subtracted
[27] = biological target: human IL-23Rα/human IL-12Rβ1 on BaF3 transfectants (human, UniProt Q5VWK5 24-629; P42701 24-662); assay: cell-based or functional assay
human PDGF-C = human PDGF-C (human, UniProt Q9NRA1 235-345, limits assumed); assay: cell-based or functional assay
human PDGF-D = human PDGF-D (human, UniProt Q9GZP0 250-370, limits assumed); assay: cell-based or functional assay
human PDGF-D, sequence (Q9GZP0 250-370 limits assumed): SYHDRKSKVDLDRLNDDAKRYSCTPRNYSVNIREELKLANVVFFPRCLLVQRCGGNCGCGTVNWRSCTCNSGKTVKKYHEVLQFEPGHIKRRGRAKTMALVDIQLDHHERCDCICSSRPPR

human PDGF-C, sequence (Q9NRA1 235-345 limits assumed): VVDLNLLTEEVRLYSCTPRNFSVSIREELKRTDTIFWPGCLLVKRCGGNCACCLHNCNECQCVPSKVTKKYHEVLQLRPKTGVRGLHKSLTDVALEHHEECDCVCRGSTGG

## B1
Human IL-17F homodimer [1]
  IC50, NIH/3T3/KZ170 NF-kB luciferase reporter: 240 pM
[2]
  IC50, NIH/3T3/KZ170 NF-kB luciferase reporter: 260 pM
Human IL-17A homodimer [3]
  IC50, NIH/3T3/KZ170 NF-kB luciferase reporter: 1400 pM
[4]
  Kd: 200 pM
  koff: 0.0005 s⁻¹
  kon: 2e+06 M⁻¹ s⁻¹
[5]
  Kd: 200 pM
  koff: 0.0005 s⁻¹
  kon: 2e+06 M⁻¹ s⁻¹
Human IL-17F homodimer [6]
  IC50, IL-6 induction in primary human fibroblasts (HFFF): 23000 pM
[7]
  IC50, IL-6 induction in primary human fibroblasts (HFFF): 22000 pM
Human IL-17A homodimer [8]
  IC50, IL-6 induction in primary human fibroblasts (HFFF): 2000 pM
Human IL-17F homodimer [9]
  IC50, NIH/3T3/KZ170 NF-kB luciferase reporter: 240 pM
[10]
  IC50, NIH/3T3/KZ170 NF-kB luciferase reporter: 270 pM
Human IL-17A homodimer [11]
  IC50, NIH/3T3/KZ170 NF-kB luciferase reporter: 1300 pM
Human IL-17F homodimer [12]
  Kd: 100 pM
  koff: 0.0002 s⁻¹
  kon: 2e+06 M⁻¹ s⁻¹
Human IL-17F homodimer [13]
  IC50, G-CSF induction in primary human SAEC: 1100 pM
  IC50, IL-6 induction in primary human fibroblasts (HFFF): 15000 pM
[14]
  IC50, G-CSF induction in primary human SAEC: 1300 pM
  IC50, IL-6 induction in primary human fibroblasts (HFFF): 13000 pM
Human IL-17A homodimer [15]
  IC50, G-CSF induction in primary human SAEC: 500 pM
  IC50, IL-6 induction in primary human fibroblasts (HFFF): 900 pM
Human IL-17A homodimer [16]
  Kd: 1000 pM
  koff: 0.003 s⁻¹
  kon: 2e+06 M⁻¹ s⁻¹
Human IL-17F homodimer [17]
  IC50, NIH/3T3/KZ170 NF-kB luciferase reporter: 400 pM
[18]
  IC50, NIH/3T3/KZ170 NF-kB luciferase reporter: 900 pM
Human IL-17A homodimer [19]
  IC50, NIH/3T3/KZ170 NF-kB luciferase reporter: 3000 pM
Human IL-17A homodimer [20]
  Kd: 1000 pM
  koff: 0.003 s⁻¹
  kon: 2e+06 M⁻¹ s⁻¹
Human IL-17F homodimer [21]
  Kd: 100 pM
  koff: 0.0002 s⁻¹
  kon: 2e+06 M⁻¹ s⁻¹
Human IL-17F homodimer [22]
  IC50, NIH/3T3/KZ170 NF-kB luciferase reporter: 280 pM
[23]
  IC50, NIH/3T3/KZ170 NF-kB luciferase reporter: 230 pM
Human IL-17A homodimer [24]
  IC50, NIH/3T3/KZ170 NF-kB luciferase reporter: 1200 pM

## B2
Human IL-17F homodimer [25]
  binding result: binds

## B3
[26]
  binding result: binds

## B4
[27]
  EC50, pSTAT3 in BaF3/huIL-23Ra/huIL-12Rb1 transfectants: 21 pM

## B5
Human PDGF-C
  IC50, NHLF proliferation (3H-thymidine): 90 pM
Human PDGF-D
  IC50, NHLF proliferation (3H-thymidine): 20000 pM
